Reference: US6106844A, “Immunomodulatory peptides of vespid antigen 5” (The Rockfeller University, priority 1998, dated 2000)

Assays:
[1] = tested on: Ag5 specific spleen cells from BALB/c mice; experiment: In vitro proliferation assay, spleen cells of Ag5-immunized BALB/c mice; type: cell-based; settings: spleen cells from mice immunized with rAg5; blank 3970 cpm
Procedure: (§1) FIG. 4. Stimulation index profile of BALB/c mice spleens after 4 immunizations with natural (n)-Ag5. In vitro proliferation assays were performed with peptides at three concentrations: 1×10^-5 M (open bar), 1.25×10^-6 M ("uphill" hatch), and 1.56×10^-7 M ("downhill" hatch). The corresponding concentrations of recombinant antigen 5 control were 1.0×10^-6 M, 1.25×10^-7, and 1.56×10^-8 M. The blank was 2200 cpm.
as §1, with “5.” for “4.”, “recombinant (r)-Ag5.” for “natural (n)-Ag5.”, “Antigen” for “antigen”, “5” for “5 control”, “4700” for “2200”
FIG. 6. […] In vitro proliferation assays were performed with peptides at three concentrations: 1×10^-5 M (open bar), 1.25×10^-6 M ("uphill" hatch), and 1.56×10^-7 M ("downhill" hatch). The corresponding concentrations of recombinant Antigen 5 were 1.0×10^-6 M, 1.25×10^-7, and 1.56×10^-8 M. […]
(§2) The peptides of the invention can be tested in a proliferation assay for T cell responses. Generally, lymphocytes from a sensitized host are obtained. The host can be a mouse that has been immunized with a vespid venom antigen 5, or with a crossreactive protein, such as testes specific protein. Using techniques that are well known in the art, T lymphocyte response to the peptide can be measured in vitro. In a specific embodiment, infra, T cell responses are detected by measuring incorporation of ^3 H-thymidine, which increases with DNA synthesis associated with proliferation. Cell proliferation can also be detected using an MTT assay [Mossman, J. Immunol. Methods, 65:55-63,(1983); Niks and Otto, J. Immunol. Methods, 130:140-151 (1990)]. Alternatively, lymphokine production assays can be practiced according to the present invention. In one embodiment, lymphokine production can be assayed using immunological or co-stimulation assays [see, e.g., Fehlner et al., J. Immunol., 146:799 (1991)] or using the ELISPOT technique [Czerkinsky, et al., J. Immunol. Methods, 110:29 (1988)]. Alternatively, mRNA for lymphokines can be detected, e.g., by amplification [see Brenner, et al., Biotechniques, 7:1096 (1989)] or in situ hybridization [see, e.g., Kasaian and Biron, J. Immunol., 142:1287 (1989)]. Of particular interest are those individuals whose T cells produce lymphokines associated with IgE isotype switch events, e.g., IL-4 and IL-5 [Purkeson and Isakson, J. Exp. Med., 175:973-982 (1992)]. Also of interest are the peptide fragments of the vespid venom antigen 5 that contain epitopes recognized by T cells involved in IgE switch events. […]

n-Dol m 5.01 = target: T1, n-Dol m 5.01 (Dolichovespula maculata, UniProt P10736); experiment: Antibody response by direct ELISA of mice immunized with recombinant white faced hornet Ag5, wells coated with n-Dol m 5.01; type: in vivo; settings: week five sera after three i.p. immunizations with rDol m 5.02 and alum
T1 construct: from tissue; host or cells: natural protein
T1 sequence (P10736 24-227): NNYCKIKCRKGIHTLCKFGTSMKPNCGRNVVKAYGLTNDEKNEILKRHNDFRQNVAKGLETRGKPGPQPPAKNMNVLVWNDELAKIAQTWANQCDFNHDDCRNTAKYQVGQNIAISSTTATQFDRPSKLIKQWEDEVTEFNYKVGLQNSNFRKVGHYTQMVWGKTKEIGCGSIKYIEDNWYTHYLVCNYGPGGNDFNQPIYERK
Procedure: Antibody response in mice of different haplotypes to recombinant hornet Ag5. Five strains of mice were immunized with recombinant (r) white faced hornet Ag5 and alum as adjuvant. […] The antibody titers (the reciprocal of the dilution yielding 50% of maximum signal extrapolated from ELISA curves in wells coated with r-Dol m 5.02 or n-Dol m 5.01) of these sera for n-(natural) and r-Ag5 are given in Table 3.
*Sera are from week five bleeding after three intraperitoneal
immunizations with 0.2 ml of 10 μg/ml rDol m 5.02 and alum (5 μg/ml
in 0.05 m sodium phosphate buffer, pH 6.2, on weeks 0, 2, and 4.

[2] = tested on: r-Ag5 specific spleen cells from ASW/Sn mice; experiment: In vitro proliferation assay, spleen cells of r-Ag5-immunized ASW/Sn mice; type: cell-based; settings: spleen cells from mice immunized 5 times with rAg5; blank 5640 cpm
Procedure: FIG. 11. Stimulation index profile of ASW/sn mice spleens after 5 immunizations with r-Ag5. In vitro proliferation assays were performed with peptides at three concentrations: 1×10^-5 M (open bar), 1.25×10^-6 M ("uphill" hatch), and 1.56×10^-7 M ("downhill" hatch). The corresponding concentrations of recombinant Antigen 5 were 1.0×10^-6 M, 1.25×10^-7, and 1.56×10^-8 M. The blank was 5640 cpm.
as §2

B1: r-Ag5: recombinant white faced hornet (Dolichovespula maculata) antigen 5 form 2, Dol m 5.02 (protein)
chain: NNYCKIKCSRGIHTLCKFGTSMKPNCGSKLVKVHGVSNDEKNEIVNRHNQFRQKVAKGLETRGNPGPQPPAKNMNVLVWNDELAKIAQTWANQCSFGHDQCRNTEKYQVGQNVAIASTTGNSYATMSKLIEMWENEVKDFNPKKGTMGDNNFSKVGHYTQMVWGKTKEIGCGSVKYIENNWHTHYLVCNYGPAGNYMDQPIYERK
[1]
  Stimulation Index BALB/c: 20.9
n-Dol m 5.01; ASW/Sn mice (haplotype s)
  Half maximal Ab titer n-Dol m 5.01: 1 × 10^5
n-Dol m 5.01; BALB/c byj mice (haplotype d)
  Half maximal Ab titer n-Dol m 5.01: 4 × 10^4
n-Dol m 5.01; C3H/He mice (haplotype k)
  Half maximal Ab titer n-Dol m 5.01: 2 × 10^3
n-Dol m 5.01; C57B1/6 mice (haplotype b)
  Half maximal Ab titer n-Dol m 5.01: 2 × 10^1
n-Dol m 5.01; P/J mice (haplotype p)
  Half maximal Ab titer n-Dol m 5.01: 1 × 10^4
[2]
  Stimulation Index ASW/Sn: 15.4
